Test results: patent US12098206B2, “PDGF receptor antibody and use thereof” (Seoul National University R&DB Foundation, priority 2018, dated 2024)

B1: PRb-CN01: anti-mPDGFR-β chicken scFv clone (VH SEQ ID NO 7, VL SEQ ID NO 8), tested as scFv-Cκ-anti-cotinine scFv bispecific antibody (antibody, V domains shown)
VH: AVTLDESGGGLQTPGGALSLVCKASGFTFSDRAMHWVRQAPGKGLEWVGLITNTGGSTNYGAAVKGRATISRDNGQSTVRLQLNNLRAEDTGTYYCTRGVGSWAHGGRIDAWGHGTEVIVSS
VL: LTQPSSVSANPGETVKITCSGGSGSYGWFQQKSPGSAPVTVIYSNNQRPSDIPSRFSGSKSGSTNTLTITGVQAEDEAIYYCGTRDSSYVGIFGAGTTLTVL
modifications: VH of PRb-CN01; VL of PRb-CN01
B2: PRb-CN32: anti-hPDGFR-β scFv clone (VH SEQ ID NO 47, VL SEQ ID NO 48), tested as scFv-Cκ-anti-cotinine scFv bispecific antibody (antibody, V domains shown)
VH: AVTLDESGGGLQTPRGTLSLVCKASGFTFSSFNMFWVRQAPGKGLEFVAGISTTGRYTGYGSAVQGRGTISRDNGQSTVRLQLNNLRAEDTGTYYCAKSAGSTYSYWDSDAGLIDAWGHGTEVIVSSTS
VL: LTQPSSVSANLGETVKITCSGGSNAGSYYYGWYQQKSPGSAPVTVIYSNNQRPSDIPSRFSGSTSGSTSTLTITGVQVDDEAVYFCGSGDSSSIAAFGAGTTLTVL
modifications: VH of PRb-CN32; VL of PRb-CN32

Key:
[1] = tested on: NIH3T3 cells; assay: cells; format: cell-based, mouse
Protocol: NIH3T3 cells were added to 50 μL of DMEM supplemented with 10% FBS and 1% penicillin/streptomycin, placed in a 96-well plate (CLS3595, Corning) and incubated overnight in 5% CO2 at 37° C. incubator. In each well containing 50 μL of cells, 50 μL of 50 anti-PDGFR-β x cotinine scFv-Cκ-scFv fusion protein (25.6 pM-2 μM) complexed with cot-duo or cot-duo-cot obtained in Experimental Example 10 was added and incubated for 72 hours in 5% CO2 at 37° C. incubator. To test mPDGF-BB on the toxic effect of the bispecific antibody of scFv-Cκ-scFv and the cotinine-duocarmycin complex, mPDGF-BB (2 nM) was added together with 50 μL of the bispecific antibody scFv-Cκ-scFv and the cotinine-duocarmycin complex. The mixed complexes were added to 50 μL of NIH3T3 cells.
The bispecific antibody of anti-HER2 x cotinine scFv-Cκ-scFv was used as a control. After 72 hours of incubation in the cells, 100 μL of Cell Titer-Glo reagents (Promega Corp., Madison, WI, USA) were added to all wells according to the manufacturer's instructions, and luminescence was measured in a luminometer (PerkinElmer, Waltham, MA, USA). The experiment was repeated 3 times. Relative viability was calculated with the following formula: [% viability=(luminescence of experimental well-luminescence of background well)/(luminescence of control-luminescence of background well)×100]. The wells containing only new medium were used as background wells.
To evaluate the toxicity of the complex of anti-mPDGFR-B x cotinine scFv-Cκ-scFv bispecific antibodies and cotinine duocarmycin (cot-duo, cot-duo-cot), the complexes were added to NIH3T3 cells in the presence/absence of mPDGF-BB. The ATP of the cells was measured for relative cell viability. The toxicity of the bispecific antibody of scFv-Cκ-scFv fusion antibody was shown by IC50 in Table 6 and FIG. 5.
It was carried out in the same manner as in Example 7, except that the bispecific antibody related with the anti-mPDGFR-β antibody and the bispecific antibody related with the anti-hPDGFR-β antibody prepared in Example 10 were used. FIG. 20a to FIG. 20b are graphs showing the difference in cytotoxic activity of PRb-CN01 and PRb-CN32 bispecific antibodies and cotinine-duocarmycin complexes in the cells expressing PDGFR-β. In FIG. 20b, an experiment was repeated in the presence of mPDGF-BB.

[2] = target: T1, NIH3T3 cells expressing mPDGFR-β (Mus musculus, UniProt P05622); assay: Flow cytometry binding to NIH3T3 cells expressing mPDGFR-β; settings: for binding to NIH3T3 cells: 100 nM, FIG. 18
T1 construct: host or cells: NIH3T3
Protocol: mPDGF-BB was biotinylated using a biotin-xx microscale protein labeling kit (Invitrogen) according to the manufacturer's instructions. NIH3T3 cells were cultured at 4° C. for 1 hour using the bispecific antibody of scFv-Cκ-scFv fusion protein (100 nM) under two different conditions with or without mPDGF-BB-biotin (100 nM). The cells were washed 4 times with flow cytometry buffer and cultured with allophycocyanin (APC)-anti-human Cκ antibody (clone TB28-2; BD Biosciences, San Jose, CA, USA) and streptavidin-phycoerythrin (PE) (12-4317-87; eBioscience, ThermoFisher). After washing, it was classified and analyzed with a FACS Canto II instrument (BD Biosciences, San Jose, CA, USA). 10,000 cells were used for each measurement, and the results were analyzed by FlowJo (Tree Star, Ashland, OR, USA). […] The binding ability of the other three clones was inhibited by mPDGF-BB.
Specifically, the bispecific antibody scFv-Cκ-scFv fusion protein (100 nM) in flow cytometry buffer was cultured on NIH3T3 cells expressing mPDGFR-β. The cells were treated with APC-anti human Cκ antibody. The bispecific antibody anti-HER2 x cotinine scFv-Cκ-scFv fusion protein was used as a negative control.

[3] = tested on: neovascularization; assay: Oxygen-induced retinal disease animal model; format: in vivo, C57BL/6 mice; settings: complex with cot-duo; 1 uL into the vitreous cavity, 1 nM and 10 nM; FIG. 9
Protocol: C57BL/6 mice on 7th day after birth were reared in a high-concentration oxygen (75%) chamber for 5 days, and transferred to a normal oxygen breeding facility on 12th day to create an environment for retinopathy of premature baby.
On the 14th day after birth, 1 uL of each bispecific antibody scFv-Cκ-scFv, and the complex of the bispecific antibody scFv-Cκ-scFv fusion protein and cot-duo were injected into the vitreous cavity at a concentration of 1 nM and 10 nM, respectively. To label blood vessels, isolectin B4-594 (1:100; 121413, Invitrogen) was treated on the retinal flat mount.

[4] = target: T1, NIH3T3 cells expressing mPDGFR-β; assay: Flow cytometry competition against PRb-CN01-rabbit Fc on NIH3T3 cells; format: binding; settings: PRb-CN01-rabbit Fc 50 nM, competitor 1 μM, FIG. 19b
Protocol: According to the same manner as in Example 5, PRb-CN01-rabbit Fc (50 nM) and PRb-CN01, control antibody, PRb-CN32 bispecific antibody scFv-Cκ-scFv (1 μM) were cultured on NIH3T3 cells for 1 hour. After washing, it was reacted with FITC-anti rabbit Fc antibody (172-1506, KPL, Gaithersburg, Maryland, USA) at 4° C. for 1 hour. After washing, it was classified and analyzed with a FACS Canto II instrument (BD Biosciences, San Jose, CA, USA). 10,000 cells were identified for each measurement. The results were analyzed by FlowJo (Tree Star, Ashland, OR, USA) (FIG. 19b).

T1 sequence (P05622 32-1098): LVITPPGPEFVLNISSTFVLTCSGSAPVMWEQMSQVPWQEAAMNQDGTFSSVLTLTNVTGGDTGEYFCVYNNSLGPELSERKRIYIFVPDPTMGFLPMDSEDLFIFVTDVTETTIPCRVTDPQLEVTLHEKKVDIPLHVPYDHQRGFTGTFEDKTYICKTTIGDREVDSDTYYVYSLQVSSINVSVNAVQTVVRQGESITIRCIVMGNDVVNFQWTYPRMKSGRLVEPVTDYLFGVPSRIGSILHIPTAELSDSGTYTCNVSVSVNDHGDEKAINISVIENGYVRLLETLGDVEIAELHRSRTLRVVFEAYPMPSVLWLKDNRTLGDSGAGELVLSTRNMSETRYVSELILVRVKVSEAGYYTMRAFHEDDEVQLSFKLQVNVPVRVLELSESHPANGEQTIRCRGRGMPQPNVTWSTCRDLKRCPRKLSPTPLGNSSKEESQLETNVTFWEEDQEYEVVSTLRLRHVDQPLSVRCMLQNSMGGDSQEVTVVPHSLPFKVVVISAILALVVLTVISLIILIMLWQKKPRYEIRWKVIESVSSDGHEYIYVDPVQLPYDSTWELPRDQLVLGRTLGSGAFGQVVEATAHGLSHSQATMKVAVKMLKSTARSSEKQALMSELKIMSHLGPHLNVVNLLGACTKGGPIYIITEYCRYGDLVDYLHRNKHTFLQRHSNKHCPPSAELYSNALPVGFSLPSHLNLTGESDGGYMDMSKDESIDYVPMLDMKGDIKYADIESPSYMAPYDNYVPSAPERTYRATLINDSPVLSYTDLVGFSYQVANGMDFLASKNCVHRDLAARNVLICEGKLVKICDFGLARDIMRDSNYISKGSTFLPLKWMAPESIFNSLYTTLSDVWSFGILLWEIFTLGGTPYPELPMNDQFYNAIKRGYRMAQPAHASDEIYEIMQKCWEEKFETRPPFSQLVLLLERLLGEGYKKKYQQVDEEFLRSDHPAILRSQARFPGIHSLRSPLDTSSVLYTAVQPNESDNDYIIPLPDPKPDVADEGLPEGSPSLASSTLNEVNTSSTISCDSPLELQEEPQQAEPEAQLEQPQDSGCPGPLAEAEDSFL

Molecule | cytotoxicity of complex with cotinine-duocarmycin, PRb-CN01 versus PRb-CN32 [1] | toxicity with the addition of mPDGF-BB ([1]; complex with cot-duo or cot-duo-cot, NIH3T3, FIG. 5) | toxicity compared to control anti-HER2 x cotinine scFv-Cκ-scFv ([1]; complex with cotinine-duocarmycin, NIH3T3, with or without mPDGF-BB, FIG. 5) | toxicity compared to free duocarmycin ([1]; cotinine-duocarmycin complexed with antibody, in the presence of mPDGF-BB, p<0.01) | cell binding in the presence of mPDGF-BB-biotin ([2]; 100 nM antibody, mPDGF-BB-biotin 100 nM, FIG. 4b) | binding to NIH3T3 cells [2] | inhibition of neovascularization [3] | inhibition of binding of PRb-CN01-rabbit Fc to mPDGFR-β on the cell surface [4]
B1 | equivalent cytotoxicity regardless of the presence/absence of mPDGF-BB | also high with the addition of mPDGF-BB | highest toxicity | significantly more toxic than free duocarmycin | bound to PDGFR-β present on the cell surface | bound to NIH3T3 cells | inhibited neovascularization in a concentration-dependent manner | inhibited
B2 | equivalent cytotoxicity regardless of the presence/absence of mPDGF-BB |  |  |  |  | bound to NIH3T3 cells |  | inhibited
